In assay [1] the target is PGT145 IgG (human). As to the kind of experiment: BLI; Octet Red; PGT145 IgG (8 µg/mL) loaded on anti-human IgG Fc capture biosensors; twofold dilution series of SOSIP trimer as analyte; 3 min association, 3 min dissociation; PBS pH 7.4, 0.1% BSA, 0.005% Tween 20, 0.02% NaN3; 1:1 binding model; averages of at least two independent experiments. On the technique in general: In BLI a coated tip is dipped into the sample, and binding shifts an interference pattern.

The target of assay [2] is PGT145 IgG (human). The description is as above. This is another data set of the same source.

Where two headings read alike, the source gives them in different places.

PGT145 IgG (human), sequence (heavy, as listed by the source, chain 1 of 2): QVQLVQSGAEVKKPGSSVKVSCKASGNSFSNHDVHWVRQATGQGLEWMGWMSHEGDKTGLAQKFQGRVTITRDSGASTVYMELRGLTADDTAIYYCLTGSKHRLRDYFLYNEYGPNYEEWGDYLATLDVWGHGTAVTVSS
PGT145 IgG (human), sequence (light, as listed by the source, chain 2 of 2): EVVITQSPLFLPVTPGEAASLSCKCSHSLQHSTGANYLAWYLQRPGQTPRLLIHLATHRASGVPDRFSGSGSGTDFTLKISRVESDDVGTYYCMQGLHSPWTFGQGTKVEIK

One may read the Kd as the free concentration of one partner at which half of the binding sites on the other are occupied at equilibrium, for simple one-to-one binding. Low values mean a tighter complex, high ones a looser complex. What is called koff is the rate constant with which the complex falls apart. Low values mean a long-lived complex, high ones a short-lived complex. Usually kon stands for a measure of how fast the partners come together. High values mean fast association, low ones slow association. As to BG505 SOSIP.664 Env trimer (complex), in the assay with PGT145 IgG (human) [1], the Kd came out at 15.6 nM, the koff is 0.00185 s⁻¹ and the association rate constant (kon) came to 129000 M⁻¹ s⁻¹. In the assay with PGT145 IgG (human) [2], this substance displayed a Kd of 16 nM, a koff of 0.00177 s⁻¹ and a kon of 120000 M⁻¹ s⁻¹.

For the substance BJOX2000 SOSIP.664 Env trimer (complex), in the assay with PGT145 IgG (human) [2], the Kd worked out at 27.7 nM, the koff turned out to be 0.00152 s⁻¹ and the kon came to 66700 M⁻¹ s⁻¹.

Turning to CNE8 SOSIP.664 Env trimer (complex), in the assay with PGT145 IgG (human) [2], the Kd was determined as 50.8 nM, the off-rate (koff) came to 0.00419 s⁻¹ and the kon amounted to 83400 M⁻¹ s⁻¹.
